Source: the supplement of paper PMC10567573

B1: APBB1IP (parent)
chain: PPEPLSQVSMWDQRWQDHQPLLPI
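Note: lentivirally expressed fusions sorted by FACS into six bins by GFP to DsRed ratio, PSI derived from sequencing read proportions per bin multiplied by bin number.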

Variants of: B1
Experiment: protein stability index of a GFP-peptide fusion (GPS, HEK-293T) (PSI 1-6); higher = more stable
Conditions: c terminus: a fixed tail appended
PPEPLSQVSMWDQRWQDHQPILPI [L21I] showed a protein stability index of 2.58. Work on PPEPLSQVSMWDQRWQDHQPPLPI [L21P] yielded a protein stability index of 3.54. For PPEPLSQVSMWDQRWQDHQPDLPI [L21D], the protein stability index was 4.13. In the case of PPEPLSQVSMWDQRWQDHQPMLPI [L21M], the protein stability index is reported as 3.4. Work on PPEPLSQVSMWDQRWQDHQPFLPI [L21F] yielded a protein stability index of 2.24. With PPEPLSQVSMWDQRWQDHQPELPI [L21E] the protein stability index was 4. In the case of PPEPLSQVSMWDQRWQDHQPWLPI [L21W], the protein stability index is reported as 2.74. For PPEPLSQVSMWDQRWQDHQPGLPI [L21G], the protein stability index was 3.76. PPEPLSQVSMWDQRWQDHQPQLPI [L21Q] gave a protein stability index of 3.68. Work on PPEPLSQVSMWDQRWQDHQPKLPI [L21K] yielded a protein stability index of 3.44. PPEPLSQVSMWDQRWQDHQPYLPI [L21Y] gave a protein stability index of 3.33. PPEPLSQVSMWDQRWQDHQPTLPI [L21T] gave a protein stability index of 3.93. Work on PPEPLSQVSMWDQRWQDHQPVLPI [L21V] yielded a protein stability index of 3.28. PPEPLSQVSMWDQRWQDHQPHLPI [L21H] showed a protein stability index of 3.39. PPEPLSQVSMWDQRWQDHQPCLPI [L21C] showed a protein stability index of 3.4. PPEPLSQVSMWDQRWQDHQPSLPI [L21S] gave a protein stability index of 3.26. Variant PPEPLSQVSMWDQRWQDHQPRLPI [L21R] has a protein stability index of 3.58. In the case of PPEPLSQVSMWDQRWQDHQPNLPI [L21N], the protein stability index is reported as 3.88. For PPEPLSQVSMWDQRWQDHQPALPI [L21A], the protein stability index was 3.88. Variant PPEPLSQVSMWDQYWQDHQPLLPI [R14Y] has a protein stability index of 3.12. With PPEPLSQVSMWDQKWQDHQPLLPI [R14K] the protein stability index was 3.06. PPEPLSQVSMWDQGWQDHQPLLPI [R14G] gave a protein stability index of 3.98. In the case of PPEPLSQVSMWDQVWQDHQPLLPI [R14V], the protein stability index is reported as 2.92. With PPEPLSQVSMWDQWWQDHQPLLPI [R14W] the protein stability index was 3.29. Variant PPEPLSQVSMWDQAWQDHQPLLPI [R14A] has a protein stability index of 2.75. With PPEPLSQVSMWDQSWQDHQPLLPI [R14S] the protein stability index was 3.84. PPEPLSQVSMWDQFWQDHQPLLPI [R14F] showed a protein stability index of 2.86. For PPEPLSQVSMWDQQWQDHQPLLPI [R14Q], the protein stability index was 2.88. With PPEPLSQVSMWDQIWQDHQPLLPI [R14I] the protein stability index was 3.14. Variant PPEPLSQVSMWDQCWQDHQPLLPI [R14C] has a protein stability index of 2.79. Variant PPEPLSQVSMWDQDWQDHQPLLPI [R14D] has a protein stability index of 3.59. In the case of PPEPLSQVSMWDQEWQDHQPLLPI [R14E], the protein stability index is reported as 3.74. With PPEPLSQVSMWDQPWQDHQPLLPI [R14P] the protein stability index was 2.9. PPEPLSQVSMWDQTWQDHQPLLPI [R14T] gave a protein stability index of 3.39. For PPEPLSQVSMWDQHWQDHQPLLPI [R14H], the protein stability index was 3.19. With PPEPLSQVSMWDQMWQDHQPLLPI [R14M] the protein stability index was 2.68. For PPEPLSQVSMWDQLWQDHQPLLPI [R14L], the protein stability index was 3.01. PPEPLSQVSMWDQNWQDHQPLLPI [R14N] gave a protein stability index of 3.86. Work on PPEPLSQVSMWDQRWQFHQPLLPI [D17F] yielded a protein stability index of 2.08. In the case of PPEPLSQVSMWDQRWQYHQPLLPI [D17Y], the protein stability index is reported as 2.25. Variant PPEPLSQVSMWDQRWQVHQPLLPI [D17V] has a protein stability index of 2.54. Variant PPEPLSQVSMWDQRWQNHQPLLPI [D17N] has a protein stability index of 3.15. Work on PPEPLSQVSMWDQRWQKHQPLLPI [D17K] yielded a protein stability index of 2.78. PPEPLSQVSMWDQRWQPHQPLLPI [D17P] gave a protein stability index of 3.23. Work on PPEPLSQVSMWDQRWQGHQPLLPI [D17G] yielded a protein stability index of 2.81. Variant PPEPLSQVSMWDQRWQEHQPLLPI [D17E] has a protein stability index of 2.97. In the case of PPEPLSQVSMWDQRWQTHQPLLPI [D17T], the protein stability index is reported as 2.57. PPEPLSQVSMWDQRWQWHQPLLPI [D17W] gave a protein stability index of 2.79. Variant PPEPLSQVSMWDQRWQSHQPLLPI [D17S] has a protein stability index of 2.53. Work on PPEPLSQVSMWDQRWQQHQPLLPI [D17Q] yielded a protein stability index of 2.57. For PPEPLSQVSMWDQRWQRHQPLLPI [D17R], the protein stability index was 2.91. PPEPLSQVSMWDQRWQMHQPLLPI [D17M] gave a protein stability index of 3.24. In the case of PPEPLSQVSMWDQRWQCHQPLLPI [D17C], the protein stability index is reported as 2.6. In the case of PPEPLSQVSMWDQRWQHHQPLLPI [D17H], the protein stability index is reported as 2.44. PPEPLSQVSMWDQRWQLHQPLLPI [D17L] gave a protein stability index of 3.26. In the case of PPEPLSQVSMWDQRWQIHQPLLPI [D17I], the protein stability index is reported as 2.57. Work on PPEPLSQVSMWDQRWQAHQPLLPI [D17A] yielded a protein stability index of 2.5. PPEPLSQVSMWDQRWYDHQPLLPI [Q16Y] gave a protein stability index of 2.98. PPEPLSQVSMWDQRWEDHQPLLPI [Q16E] showed a protein stability index of 2.92. In the case of PPEPLSQVSMWDQRWWDHQPLLPI [Q16W], the protein stability index is reported as 2.73. Work on PPEPLSQVSMWDQRWIDHQPLLPI [Q16I] yielded a protein stability index of 2.72. Variant PPEPLSQVSMWDQRWVDHQPLLPI [Q16V] has a protein stability index of 2.7. PPEPLSQVSMWDQRWRDHQPLLPI [Q16R] gave a protein stability index of 2.68. In the case of PPEPLSQVSMWDQRWDDHQPLLPI [Q16D], the protein stability index is reported as 3.52. With PPEPLSQVSMWDQRWPDHQPLLPI [Q16P] the protein stability index was 3.84. Work on PPEPLSQVSMWDQRWHDHQPLLPI [Q16H] yielded a protein stability index of 2.53. PPEPLSQVSMWDQRWCDHQPLLPI [Q16C] gave a protein stability index of 2.6. Variant PPEPLSQVSMWDQRWLDHQPLLPI [Q16L] has a protein stability index of 2.46. Variant PPEPLSQVSMWDQRWNDHQPLLPI [Q16N] has a protein stability index of 2.85. PPEPLSQVSMWDQRWTDHQPLLPI [Q16T] showed a protein stability index of 2.46. With PPEPLSQVSMWDQRWSDHQPLLPI [Q16S] the protein stability index was 2.61. Variant PPEPLSQVSMWDQRWMDHQPLLPI [Q16M] has a protein stability index of 2.99. Variant PPEPLSQVSMWDQRWFDHQPLLPI [Q16F] has a protein stability index of 2.83. PPEPLSQVSMWDQRWGDHQPLLPI [Q16G] showed a protein stability index of 2.98. PPEPLSQVSMWDQRWKDHQPLLPI [Q16K] gave a protein stability index of 3.06. Work on PPEPLSQVSMWDQRWADHQPLLPI [Q16A] yielded a protein stability index of 2.23. Variant PPEPLSQVSMWDQRWQDHNPLLPI [Q19N] has a protein stability index of 3. PPEPLSQVSMWDQRWQDHYPLLPI [Q19Y] gave a protein stability index of 2.44. For PPEPLSQVSMWDQRWQDHRPLLPI [Q19R], the protein stability index was 3. For PPEPLSQVSMWDQRWQDHGPLLPI [Q19G], the protein stability index was 3.33. For PPEPLSQVSMWDQRWQDHWPLLPI [Q19W], the protein stability index was 2.21. PPEPLSQVSMWDQRWQDHFPLLPI [Q19F] showed a protein stability index of 2.89. In the case of PPEPLSQVSMWDQRWQDHIPLLPI [Q19I], the protein stability index is reported as 2.47. Work on PPEPLSQVSMWDQRWQDHCPLLPI [Q19C] yielded a protein stability index of 2.61. Work on PPEPLSQVSMWDQRWQDHHPLLPI [Q19H] yielded a protein stability index of 2.48. In the case of PPEPLSQVSMWDQRWQDHKPLLPI [Q19K], the protein stability index is reported as 2.87. For PPEPLSQVSMWDQRWQDHMPLLPI [Q19M], the protein stability index was 2.72. In the case of PPEPLSQVSMWDQRWQDHTPLLPI [Q19T], the protein stability index is reported as 3.02. Variant PPEPLSQVSMWDQRWQDHAPLLPI [Q19A] has a protein stability index of 3.04. Variant PPEPLSQVSMWDQRWQDHDPLLPI [Q19D] has a protein stability index of 3.74. Variant PPEPLSQVSMWDQRWQDHLPLLPI [Q19L] has a protein stability index of 2.83. Variant PPEPLSQVSMWDQRWQDHPPLLPI [Q19P] has a protein stability index of 2.63. Work on PPEPLSQVSMWDQRWQDHEPLLPI [Q19E] yielded a protein stability index of 3.48. PPEPLSQVSMWDQRWQDHVPLLPI [Q19V] gave a protein stability index of 2.33.
